Read-outs that look alike come from different tables or passages of the source.

Test [1] concerns the target T1, mouse ROBO4 (pCI-mROBO4-transfected HEK293 cells) (mouse, UniProt Q8C310 28-1012).
T1 sequence: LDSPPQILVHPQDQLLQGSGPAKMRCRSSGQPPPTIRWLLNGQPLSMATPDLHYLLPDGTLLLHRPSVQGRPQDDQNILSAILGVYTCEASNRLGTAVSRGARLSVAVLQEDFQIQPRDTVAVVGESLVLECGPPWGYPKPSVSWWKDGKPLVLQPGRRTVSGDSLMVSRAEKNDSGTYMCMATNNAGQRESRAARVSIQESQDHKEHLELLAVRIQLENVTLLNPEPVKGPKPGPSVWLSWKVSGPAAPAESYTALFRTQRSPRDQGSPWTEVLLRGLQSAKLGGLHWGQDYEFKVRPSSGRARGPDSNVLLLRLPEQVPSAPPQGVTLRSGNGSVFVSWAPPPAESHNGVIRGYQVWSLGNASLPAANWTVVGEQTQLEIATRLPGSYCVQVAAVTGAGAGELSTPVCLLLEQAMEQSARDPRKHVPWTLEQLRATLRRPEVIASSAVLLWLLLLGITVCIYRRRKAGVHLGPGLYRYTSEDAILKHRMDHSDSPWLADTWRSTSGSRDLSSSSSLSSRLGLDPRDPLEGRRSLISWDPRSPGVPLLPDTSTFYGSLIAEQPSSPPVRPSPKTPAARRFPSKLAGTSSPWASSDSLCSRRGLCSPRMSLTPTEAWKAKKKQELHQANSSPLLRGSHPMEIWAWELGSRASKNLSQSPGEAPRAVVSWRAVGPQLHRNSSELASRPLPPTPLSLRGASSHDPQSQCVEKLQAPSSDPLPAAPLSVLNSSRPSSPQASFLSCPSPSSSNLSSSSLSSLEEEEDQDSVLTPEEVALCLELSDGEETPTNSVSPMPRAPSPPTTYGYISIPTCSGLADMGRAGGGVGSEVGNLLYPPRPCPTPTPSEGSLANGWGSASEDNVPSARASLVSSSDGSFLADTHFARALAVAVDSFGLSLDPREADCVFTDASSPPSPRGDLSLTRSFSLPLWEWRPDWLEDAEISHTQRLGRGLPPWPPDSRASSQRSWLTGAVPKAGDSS
Description: flow cytometry (FC500), HEK293 cells transfected with pCI-mROBO4, FITC goat anti-human IgG Fc; control histogram IgG (human IgG). In general terms: Flow cytometry measures light scatter and fluorescence of single cells or particles in a stream.

For test [2], the target named is T2, rat ROBO4 (pCI-raROBO4-transfected HEK293 cells) (rat, UniProt Q80W87 38-949 at identity 0.93)).
T2 chain: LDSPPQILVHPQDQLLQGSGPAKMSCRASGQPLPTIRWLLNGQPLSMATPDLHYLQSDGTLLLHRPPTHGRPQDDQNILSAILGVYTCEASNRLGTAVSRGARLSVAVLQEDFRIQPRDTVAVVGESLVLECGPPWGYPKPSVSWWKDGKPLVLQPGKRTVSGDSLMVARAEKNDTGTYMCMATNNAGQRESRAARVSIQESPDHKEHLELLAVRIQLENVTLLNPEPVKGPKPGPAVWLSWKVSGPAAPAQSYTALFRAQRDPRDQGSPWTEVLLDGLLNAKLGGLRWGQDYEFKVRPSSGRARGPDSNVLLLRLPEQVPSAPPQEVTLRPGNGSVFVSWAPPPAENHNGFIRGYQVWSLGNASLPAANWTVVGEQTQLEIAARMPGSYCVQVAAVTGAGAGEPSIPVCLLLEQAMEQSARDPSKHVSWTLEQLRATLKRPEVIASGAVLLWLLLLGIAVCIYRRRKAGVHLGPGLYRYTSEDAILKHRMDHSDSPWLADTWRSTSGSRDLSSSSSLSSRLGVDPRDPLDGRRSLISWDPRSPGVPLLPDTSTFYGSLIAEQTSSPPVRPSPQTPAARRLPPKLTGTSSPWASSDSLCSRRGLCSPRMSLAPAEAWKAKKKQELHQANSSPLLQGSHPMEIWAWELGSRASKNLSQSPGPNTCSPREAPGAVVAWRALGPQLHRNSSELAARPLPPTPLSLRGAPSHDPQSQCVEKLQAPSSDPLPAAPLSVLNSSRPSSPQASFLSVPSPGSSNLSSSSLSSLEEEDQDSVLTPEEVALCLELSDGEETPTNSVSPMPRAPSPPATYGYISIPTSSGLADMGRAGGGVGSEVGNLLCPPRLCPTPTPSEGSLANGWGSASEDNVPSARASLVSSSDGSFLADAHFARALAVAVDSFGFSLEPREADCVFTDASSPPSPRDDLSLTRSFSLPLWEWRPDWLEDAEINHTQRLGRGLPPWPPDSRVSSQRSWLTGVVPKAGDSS
Description: flow cytometry (FC500), HEK293 cells transfected with pCI-raROBO4, FITC goat anti-human IgG Fc; control histogram IgG (human IgG).

Test [3] addresses T2, rat ROBO4 (pCI-raROBO4-transfected …). The description is as above.

B1: humanized MAb1 antibody H-1143 (antibody, human IgG2, kappa, V domains shown)
VH: EVQLVESGGGLVQPGGSLRLSCAASGFTFSTYAMSWVRQAPGKGLEWVATISQGGTYTYYPDSVKGRFTISRDNAKNTLYLQMNSLRAEDTAVYYCARLIYYDYLDYWGQGTLVTVSS
VL: DIVMTQSPLSLPVTLGEPASISCRSSQSLENENKNLYLNWYLQKPGQSPQLLIYRVSNRFSGVPDRFSGSGSGTDFTLKISRVEAEDVGVYYCLQVTHVPWTFGPGTKVDIKR
notes: Human IgG2 / kappa constant regions; also called hMAb1-H2-type heavy chain + hMAb1-L2-type light chain
For B1, the binding result in test [1] is recorded as “no binding (tested: 10 µg/mL)”.

B2: humanized MAb1 antibody H-2140 (antibody, human IgG2, kappa, V domains shown)
VH: EVQLVESGGGLVQPGGSLRLSCAASGFTFSTYAMSWVRQAPGKRLEWVATISQGGTYTYYPDSVKGRFTISRDNAKNTLYLQMNSLRAEDTAVYYCARLIYYDYLDYWGQGTLVTVSS
VL: DIVMTQSPLSLPVTLGEPASISCRSSQSLENSNGNTYLNWYLQKPGQSPQLLIYRVSNRFSGVPDRFSGSGSGTDFTLKISRVEAEDVGVYYCLQVTHVPWTFGPGTKVDIKR
notes: Human IgG2 / kappa constant regions; also called hMAb1-H4-type heavy chain + hMAb1-L1-type light chain
Take B2: in test [2], the binding result was “no binding (tested: 10 µg/mL)”.

B3: humanized MAb1 antibody H-2143 (antibody, human IgG2, kappa, V domains shown)
VH: EVQLVESGGGLVQPGGSLRLSCAASGFTFSTYAMSWVRQAPGKRLEWVATISQGGTYTYYPDSVKGRFTISRDNAKNTLYLQMNSLRAEDTAVYYCARLIYYDYLDYWGQGTLVTVSS
VL: DIVMTQSPLSLPVTLGEPASISCRSSQSLENENKNLYLNWYLQKPGQSPQLLIYRVSNRFSGVPDRFSGSGSGTDFTLKISRVEAEDVGVYYCLQVTHVPWTFGPGTKVDIKR
notes: Human IgG2 / kappa constant regions; also called hMAb1-H4-type heavy chain + hMAb1-L2-type light chain
B3: in test [3], the binding result was “no binding (tested: 10 µg/mL)”.

These data come from patent US20150098945A1 (Daiichi Sankyo, published 2015).
